Data as given in article PMC12416549 (2024).
Where a chain is given by its changes, count along the chain named. Numbers in names are those of the source.

T1: TNFR1 (Homo sapiens, UniProt P19438)
T1 chain: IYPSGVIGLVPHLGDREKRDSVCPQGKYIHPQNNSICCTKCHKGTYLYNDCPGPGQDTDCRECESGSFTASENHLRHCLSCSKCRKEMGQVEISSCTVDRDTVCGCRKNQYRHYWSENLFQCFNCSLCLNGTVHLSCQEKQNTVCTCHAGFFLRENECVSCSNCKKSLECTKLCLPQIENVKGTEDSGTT

B1: K18Q (designed binder)
chain: SMEEEVEKAAKEYEKKKQEAIEKHLEKLKAKDKEAAERFLKELEEAAKEYAKDEAKTMSEEEAKRRAKKYKEKVLLSELSEEEQKEIKEAEEKLVRTILKYVEEAAK
B2: K52C (designed binder)
chain: B1 chain with Q18K, K52C
B3: Y101A (designed binder)
chain: B1 chain with Q18K, Y101A
B4: K68A (designed binder)
chain: B1 chain with Q18K, K68A
B5: M2K (designed binder)
chain: B1 chain with M2K, Q18K
B6: V6F (designed binder)
chain: B1 chain with V6F, Q18K
B7: V102I (designed binder)
chain: B1 chain with Q18K, V102I
B8: L28H (designed binder)
chain: B1 chain with Q18K, L28H
B9: A10F (designed binder)
chain: B1 chain with A10F, Q18K
B10: M2P (designed binder)
chain: B1 chain with M2P, Q18K
B11: S1N (designed binder)
chain: B1 chain with S1N, Q18K
B12: K100I (designed binder)
chain: B1 chain with Q18K, K100I
B13: D53Y (designed binder)
chain: B1 chain with Q18K, D53Y
B14: K27T (designed binder)
chain: B1 chain with Q18K, K27T
B15: K68R (designed binder)
chain: B1 chain with Q18K, K68R
B16: K33H (designed binder)
chain: B1 chain with Q18K, K33H
B17: A30P (designed binder)
chain: B1 chain with Q18K, A30P
B18: E82F (designed binder)
chain: B1 chain with Q18K, E82F
B19: E12G (designed binder)
chain: B1 chain with E12G, Q18K
B20: L79C (designed binder)
chain: B1 chain with Q18K, L79C
B21: E19Y (designed binder)
chain: B1 chain with Q18K, E19Y
B22: H24Q (designed binder)
chain: B1 chain with Q18K, H24Q
B23: E81W (designed binder)
chain: B1 chain with Q18K, E81W
B24: K16P (designed binder)
chain: B1 chain with K16P, Q18K
B25: E3M (designed binder)
chain: B1 chain with E3M, Q18K
B26: E22L (designed binder)
chain: B1 chain with Q18K, E22L
B27: Y13F (designed binder)
chain: B1 chain with Y13F, Q18K
B28: K11Y (designed binder)
chain: B1 chain with K11Y, Q18K
B29: L25T (designed binder)
chain: B1 chain with Q18K, L25T
B30: E42N (designed binder)
chain: B1 chain with Q18K, E42N
B31: E104P (designed binder)
chain: B1 chain with Q18K, E104P
B32: K93S (designed binder)
chain: B1 chain with Q18K, K93S
B33: D32C (designed binder)
chain: B1 chain with Q18K, D32C
B34: K93P (designed binder)
chain: B1 chain with Q18K, K93P
B35: K18H (designed binder)
chain: B1 chain with Q18H
B36: S77N (designed binder)
chain: B1 chain with Q18K, S77N
B37: L28G (designed binder)
chain: B1 chain with Q18K, L28G
B38: K64N (designed binder)
chain: B1 chain with Q18K, K64N
B39: M2R (designed binder)
chain: B1 chain with M2R, Q18K
B40: K52G (designed binder)
chain: B1 chain with Q18K, K52G
B41: K93M (designed binder)
chain: B1 chain with Q18K, K93M
B42: A105N (designed binder)
chain: B1 chain with Q18K, A105N
B43: L94H (designed binder)
chain: B1 chain with Q18K, L94H
B44: Q84S (designed binder)
chain: B1 chain with Q18K, Q84S
B45: I21A (designed binder)
chain: B1 chain with Q18K, I21A
B46: T57Y (designed binder)
chain: B1 chain with Q18K, T57Y
B47: K27V (designed binder)
chain: B1 chain with Q18K, K27V
B48: A46T (designed binder)
chain: B1 chain with Q18K, A46T
B49: S59W (designed binder)
chain: B1 chain with Q18K, S59W
B50: E42Q (designed binder)
chain: B1 chain with Q18K, E42Q
B51: S77G (designed binder)
chain: B1 chain with Q18K, S77G
B52: K8F (designed binder)
chain: B1 chain with K8F, Q18K
B53: A35C (designed binder)
chain: B1 chain with Q18K, A35C
B54: E104V (designed binder)
chain: B1 chain with Q18K, E104V
B55: E92A (designed binder)
chain: B1 chain with Q18K, E92A
B56: A9T (designed binder)
chain: B1 chain with A9T, Q18K
B57: K64Y (designed binder)
chain: B1 chain with Q18K, K64Y
B58: E81Q (designed binder)
chain: B1 chain with Q18K, E81Q
B59: K17T (designed binder)
chain: B1 chain with K17T, Q18K

Biological target: T1, TNFR1
Test: yeast display SC50

Binder	apparent Kd (screen)
B1	1.4 nM
B2	1.27 nM
B3	0.405 nM
B4	1.05 nM
B5	0.49 nM
B6	2.25 nM
B7	2.73 nM
B8	0.79 nM
B9	10.4 nM
B10	0.49 nM
B11	0.593 nM
B12	1.4 nM
B13	2.73 nM
B14	0.956 nM
B15	0.718 nM
B16	0.446 nM
B17	11.4 nM
B18	0.539 nM
B19	0.49 nM
B20	1.86 nM

Binder	apparent Kd (screen)
B21	1.54 nM
B22	0.79 nM
B23	0.304 nM
B24	18.3 nM
B25	10.4 nM
B26	0.869 nM
B27	0.446 nM
B28	0.49 nM
B29	1.86 nM
B30	7.07 nM
B31	0.446 nM
B32	0.653 nM
B33	3 nM
B34	8.56 nM
B35	1.27 nM
B36	3 nM
B37	1.4 nM
B38	0.653 nM
B39	0.539 nM
B40	0.869 nM

Binder	apparent Kd (screen)
B41	0.718 nM
B42	1.86 nM
B43	0.446 nM
B44	11.4 nM
B45	0.653 nM
B46	0.0802 nM
B47	0.956 nM
B48	2.73 nM
B49	13.8 nM
B50	9.41 nM
B51	2.48 nM
B52	0.539 nM
B53	1.69 nM
B54	0.446 nM
B55	12.5 nM
B56	0.446 nM
B57	0.446 nM
B58	0.593 nM
B59	1.05 nM
